The values below come from PMC4034487, “Immobilization of a Pleurotus ostreatus Laccase Mixture on Perlite and Its Application to Dye Decolourisation” (BioMed Research International, 2014).

One may read the Km as the substrate concentration at which the rate is half of its maximum. In general, kcat refers to the number of substrate molecules converted per active site and unit of time at saturation.

Substrate in the series: CCn1c(=NN=c2sc3cc(S(=O)(=O)O)ccc3n2CC)sc2cc(S(=O)(=O)O)ccc21
Nature of the series: purified protein. The class given is biochemical, Pleurotus ostreatus. Conditions: free soluble enzyme, 0.1 M sodium citrate pH 3.0, 25°C (general assay).

B1: POXC (Pleurotus ostreatus) (protein)
chain: AIGPAGNMYIVNEDVSPDGFARSAVVARSVPATDPTPATASIPGVLVQGNKGDNFQLNVVNQLSDTTMLKTTSIHWHGFFQAGSSWADGPAFVTQCPVASGDSFLYNFNVPDQAGTFWYHSHLSTQYCDGLRGPFVVYDPSDPHLSLYDIDNADTVITLEDWYHIVAPQNAAIPTPDSTLINGKGRYAGGPTSPLAIINVESNKRYRFRLVSMSCDPNFTFSIDGHSLLVIEADAVNIVPITVDSIQIFAGQRYSFVLTANQAVDNYWIRANPNLGSTGFVGGINSAILRYAGATEDDPTTTSSTSTPLLETNLVPLENPGAPGPPVPGGADININLAMAFDFTTFELTINGVPFLPPTAPVLLQILSGASTAASLLPSGSIYELEANKVVEISMPALAVGGPHPFHLHGHTFDVIRSAGSTTYNFDTPARRDVVNTGTGANDNVTIRFVTDNPGPWFLHCHIDWHLEIGLAVVFAEDVTSISAPPAAWDDLCPIYNALSDNDKGGIVPS
notes: native purified laccase isoenzyme from P. ostreatus; soluble form
With B1, the Km stood at 30 µM and the kcat stood at 10300 s⁻¹.
